Data reported in the DeepSol protein solubility set.

Assay: soluble on expression in E. coli; label from the status in PepcDB or PDB records
In the case of “MSTLQRRRVNRADSGDTSSIHSSANNTKGDKIANIAVDGDDDNGTNKKIAYDPEESKLRDNINIPTLTLMEEVLLMGLRDREGYLSFWNDSISYALRGCIIIELALRGKIRILDDSARKRFDLSERLIEVIDSSKTGEVLLDETLQLMKNDEPLSISNWIDLLSGETWNLLKINYQLKQVRERLAKGLVDKGVLRTEMKNFFLFDMATHPIADASCKEAIKRRVLSVLVSRNMELSYNEYFPETTSFKIIRTLALICGSYGANVLENVLTTLEYEKRDKAISRAEEIMAQFSQYPFDLEKETELGVSVNLNKEVKEEIENNPGHDLQLEVIAGVFEVFSRMDMLL”, the “soluble on expression in E. coli” value is reported as “soluble”.
In the case of “MKSRREQSIEEAIVANYLKMMIDNVNVWPRHFLRSEDVYCKNPWTLFVTRDPIILHFGRYFFVNRSVNSGLTDGCEYGCWRIIGRDRVIKSVTTGKILGLKKVYKFCETDRKPKSVFKFLEKEKRRVRDRRIWAMEEYRFASTWKQDYVICKIRRLYPQPFDYMLAQHIRGYYK”, the “soluble on expression in E. coli” value is reported as “soluble”.
In the case of “MSLASNVLLQASRLGEMVIKRGGATGLMVHRDTKENNLNVKFKFTSENQERIKAIMDIYPEGHKAGALIPLLDLAQRQHGWLPISAMHEVAKILEVPRMRAYEVATFYTMFNRQPVGKYFLQVCATTPCMLRGAETITETIEKKLGIHAGETTKDGLFTLAEVECLGACVNAPMIQINDDYFEDLTPKDVNEILDDLKAGRKPAAGPRSGRLAAEPFGELTSLKETPPGPGFGLQAALK”, the “soluble on expression in E. coli” value is reported as “not soluble”.
In the case of “MNKFNEEYRKMEEDAQRRHQELNRQSLENAAEMKDSRRKILNKEFEGAILIKQVEHETKQVEKKRENLEKGHKKEMRNMSADFRKKKNEIEMEQLKLAIGNRVENHNQRKVEEQLRNEQERFLKKLLKYHTTTGANRDLFGEFQKVLKPFNEMIGELQDIKLRCITDGDADNGYIEYEVDYVGQLRRSVYTEIDEFREYIADEKNISKEIGIACAIYVKKLERIADCKELNLLCDQLQAAIEGKNGEIIKTCEIFIDKFTQKFESISNGSTSDFHRLRLKAPERDIPSSSTLTIEN”, the “soluble on expression in E. coli” value is reported as “not soluble”.
In the case of “MGSDKIHHHHHHSPTTTVTTTDASVTTTPPTTTPPTTAVVTDCTTCTAALITLTQGTDGAVDATPVEGVDATGCATITYTCENTPVDAQNVIFLTFYGGGIDRGVDQGTGSLNVLLNCVDGAWVRGGLVIDEILCQVI”, the “soluble on expression in E. coli” value is reported as “not soluble”.
In the case of “MGSDKIHHHHHHMPDLFVTNFNRNFTGVSATAANVIRQQVATHDLALVGHALPGCPAPISARAARALSRTPPPGKPFAIWHVRRNPEMQTAIWARDVLRLPIRIVFTSAAIRRHSAFPRWLISRMDAVVATSDAAASFVPHVRAVVPHGVDTDRFTPAPDRPAAWAAQGYGGSFGIATIGRVRPEKGTDLFVEAMLRLLPDMPGAVALVVGRATKEHQKFALTLKDKVQRAGMIDRIRFIDEVPPDRLPDLMRALSLVVQLPRYEGYGMVPLEAMASGVPFVGSDTGFFREFSAQGRAGRVVPLENAGLGAEAARALLADEDVHGAAALAAREIAVESFSAAREAAGIEAVYQQLWSQAAPGA”, the “soluble on expression in E. coli” value is reported as “not soluble”.
In the case of “MSLEKKDTNSLKLLLIGNTGIGEYKSRAERKGLWYKLKRFLWTNEFDQTVSALAKWHAEEKADAVLGLGDFLGIPGPLSARDERFTKRWYDIFVKDAKLDIPWLMTLGEEEALVNPSASVRHHYTGEHPNWYMPNDAYTATFSFSTSMTMANGTIQHEAFNATVINVNTWNLFVGNPIANNMQSMMDRLMWLSDQLYTAVNQTTNWLIIMGHLPLVSTGPQGEQGRLQYVDDLYKNGQPRGPEAVLIQMLLSHYQVDLYVSAHDHFMEYVALEDLSKNTTTAFITSGAAVRLLDKDVGRGWIGRLRGALYPILCWSGRRILYAFHPGEGHHHHHH”, the “soluble on expression in E. coli” value is reported as “not soluble”.
For “MILVFLGPPGAGKGTQAKRLAKEKGFVHISTGDILREAVQKGTPLGKKAKEYMERGELVPDDLIIALIEEVFPKHGNVIFDGFPRTVKQAEALDEMLEKKGLKVDHVLLFEVPDEVVIERLSGRRINPETGEVYHVKYNPPPPGVKVIQREDDKPEVIKKRLEVYREQTAPLIEYYKKKGILRIIDASKPVEEVYRQVLEVIGDGN”, the “soluble on expression in E. coli” value was “soluble”.
For “GSVSPTFQVVNSFAPVQECSTQLDIVIVLDGSNSIYPWESVIAFLNDLLKRMDIGPKQTQVGIVQYGENVTHEFNLNKYSSTEEVLVAANKIVQRGGRQTMTALGIDTARKEAFTEARGARRGVKKVMVIVTDGESHDNYRLKQVIQDCEDENIQRFSIAILGHYNRGNLSTEKFVEEIKSIASEPTEKHFFNVSDELALVTIVKALGERIFALEALERPHRD”, the “soluble on expression in E. coli” value was “soluble”.
For “MTRLAEILDQMSAVLNDLKTVMDQEQQHLSMGQINGSQLQWITEQKSSLLATLDYLEQLRRKEPNTANSVDISQRWQEITVKTQQLRQMNQHNGWLLEGQIERNQQALEMLKPHQEPTLYGANGQTSTTHRGGKKISILEHHHHHH”, the “soluble on expression in E. coli” value was “soluble”.
With “MGSSHHHHHHSSGLVPRGSHMVAFLRGDRRKENSDNFRTRNSILGDIINSSPATVGKAQYLTYLAQPIEPSGNYSTFAEAQKTRAPRVYVGANDGMLHGFDTDGNETFAFIPSAVFEKMHKLTARGYQGGAHQFYVDGSPVVADAFFGGAWHTVLIGSLRAGGKGLFALDVTDPANIKLLWEIGVDQEPDLGYSFPKPTVARLHNGKWAVVTGNGYSSMNDKAALLIIDMETGAITRKLEVTGRTGVPNGLSSPRLADNNSDGVADYAYAGDLQGNLWRFDLIAGKVNQDDPFSRANDGPAVASSFRVSFGGQPLYSAVDSAGAAQAITAAPSLVRHPTRKGYIVIFGTGKYFENADARADTSRAQTLYGIWDQQTKGEAAGSTPRLTRGNLQQQTLDLQADSTFASTARTIRIASQNPVNWLNNDGSTKQSGWYLDFMVNGTLKGEMLIEDMIAIGQVVLLQTITPNDDPCADGASNWTYGLDPYTGGRTSFTVFDLARQGVVDSKSDYSYNKQNVAVSGTEQKGLGGLTLSTNEQGNPEVCSSGECLTVNPGPNTRGRQNWRPIEGKN” the “soluble on expression in E. coli” value was “soluble”.
With “MERVSITERPDWREKAHEYGFNFHTMYGEPYWCEDAYYKLTLAQVEKLEEVTAELHQMCLKVVEKVIASDELMTKFRIPKHTWSFVRQSWLTHQPSLYSRLDLAWDGTGEPKLLENNADTPTSLYEAAFFQWIWLEDQLNAGNLPEGSDQFNSLQEKLIDRFVELREQYGFQLLHLTCCRDTVEDRGTIQYLQDCATEAEIATEFLYIDDIGLGEKGQFTDLQDQVISNLFKLYPWEFMLREMFSTKLEDAGVRWLEPAWKSIISNKALLPLLWEMFPNHPNLLPAYFAEDDHPQMEKYVVKPIFSREGANVSIIENGKTIEAAEGPYGEEGMIVQQFHPLPKFGDSYMLIGSWLVNDQPAGIGIREDRALITQDMSRFYPHIFVE” the “soluble on expression in E. coli” value was “soluble”.
In the case of “MGSDKIHHHHHHMKPDLSSHLVLGERPDGRTLITARWVLAWRDGGHALIPDGEIVVDRNEVLYAGPRFEGDVARRIDFGTALVSPGLIDLDALSDLDTYLLVHDNQPGWAKGRIWPRSYVESGPYEMYSAEELAFQKRFAFGLLLLNGITTAAPIASLYYRQWAETVAEFEAAADAAGDLGLRVFLSPAYRSGGMILEGPGRIEPAFDEPRGLQGLADAIDFIERNHGRHNGLVNGMLAPDRIETCTLHLLQRTMAAARDLDCRVRIHMAQGNLELETMRRLHGVSAPQWLADHGLMSERLIAPHGTYASPQDLQLYAQHGVSIAHSPLVSARMGSILNSFAACRSLGINIGMATDTAPPDMLMNLLVGLIACRIGEKTSDAVFSKDLFDAATLGGAKALGRRDLGRLAAGAKADIAVFRLDDVHMTPSVDPVTTLVVGGSGKVTQAVFVDGRLSMLDGKVAGIDMIAAREQAQQQYDGLIAKYPDRSWRHPPVGKIFSPSYPVWKIQ”, the “soluble on expression in E. coli” value is reported as “not soluble”.
In the case of “MAESPSQSDAQLVAHQSPGQQADSDLTSLVFDYKSVLCVYFFSHLLTVLKTNAIAEMSQQVQMGMENMLKMVYEIDQNSVGIKEEIEKSKDFAMEKKRILEEEKDQFQKAAYTILDMLSNSRG”, the “soluble on expression in E. coli” value is reported as “soluble”.
In the case of “MKRGYVLHHRPYRESSALVNLLVDGIGRVDAVARVGSGKRSIKSILQPFQPLIFEFSGKSELKNISQIEAAAPAVPLSGYSLYAGMYINELLMRTLSVQHNAEALFFIYHQALVGLAAQFCESKLRYLELALLRELGAMPSLIRDTQGEPLIPEHCYQLVPELGFQFVLNSRAKHTYQGAMLTALNDNQLLQEQFLEAKRLMRSMLQPLLGNKPLVSRQLFIQAAASKVDGNN”, the “soluble on expression in E. coli” value is reported as “not soluble”.
